For 1 substance, stoichiometry N results are on record in publication PMC7954978.

The stoichiometry N is a count of units in the complex or per binding partner.

In the test the target is GltPh-XL2 (cysteine-less GltPh with L152C and G351C) (UniProt O59010). Nature of the test: cryo-EM structure.

As for “GltPh-XL2 (cysteine-less GltPh with L152C and G351C) (from UniProt O59010 1-417) (natural protein)”, the stoichiometry N came out at 3.
